# According to the supplement of paper PMC9112550, “Optimization of the antimicrobial peptide Bac7 by deep mutational scanning” (BMC Biology, 2022):
# System: Escherichia coli TOP10
# Test: shrunken log2 fold change of peptide-encoding DNA abundance (4.5 h post-induction vs induction); higher = less antimicrobial activity (less host growth inhibition)
# Conditions: time post-induction: 4.5 h; library: site-saturation at positions 5, 18, 19, 20
# 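Note: peptides expressed intracellularly from a pBAD plasmid library in pooled LB shake-flask culture, induced with 0.3% L-arabinose, DNA abundance read by NGS, three biological replicates, DESeq2 with apeglm shrinkage.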
row,Sequence,shrunken log2 fold change
1,RRIRCRPPRLPRPRPRPIMYPRP,-0.916
2,RRIRTRPPRLPRPRPRPIYNPRP,-0.254
3,RRIRQRPPRLPRPRPRPHAIPRP,-0.562
4,RRIRWRPPRLPRPRPRPCGAPRP,0.525
5,RRIRHRPPRLPRPRPRPGYCPRP,-0.507
6,RRIRERPPRLPRPRPRPGDDPRP,-0.152
7,RRIRKRPPRLPRPRPRPKWHPRP,0.0114
8,RRIRSRPPRLPRPRPRPLYHPRP,-0.599
9,RRIRNRPPRLPRPRPRPKGMPRP,-0.112
10,RRIRDRPPRLPRPRPRPGTQPRP,0.00934
11,RRIRKRPPRLPRPRPRPWYYPRP,-0.198
12,RRIRIRPPRLPRPRPRPKDVPRP,-0.141
13,RRIRFRPPRLPRPRPRPELDPRP,0.0203
14,RRIRIRPPRLPRPRPRPGPHPRP,0.0135
15,RRIRQRPPRLPRPRPRPACNPRP,0.0438
16,RRIRVRPPRLPRPRPRPVADPRP,0.181
17,RRIRHRPPRLPRPRPRPYYHPRP,-0.339
18,RRIRNRPPRLPRPRPRPKQMPRP,0.267
19,RRIRNRPPRLPRPRPRPFFSPRP,-0.14
20,RRIRDRPPRLPRPRPRPQYQPRP,-0.156
21,RRIRRRPPRLPRPRPRPCHFPRP,-0.181
22,RRIRTRPPRLPRPRPRPMHDPRP,-0.00302
23,RRIRYRPPRLPRPRPRPEEIPRP,-0.00965
24,RRIRCRPPRLPRPRPRPLFCPRP,-0.442
25,RRIRNRPPRLPRPRPRPNLCPRP,-0.0109

row,Sequence,shrunken log2 fold change
1,RRIRMRPPRLPRPRPRPGSYPRP,0.124
2,RRIRLRPPRLPRPRPRPKPVPRP,0.165
3,RRIRQRPPRLPRPRPRPYVTPRP,-0.253
4,RRIRIRPPRLPRPRPRPYLQPRP,-0.00195
5,RRIRTRPPRLPRPRPRPISSPRP,-0.0114
6,RRIRFRPPRLPRPRPRPHMGPRP,-0.292
7,RRIRVRPPRLPRPRPRPCFEPRP,-0.0173
8,RRIRGRPPRLPRPRPRPVMIPRP,0.157
9,RRIRTRPPRLPRPRPRPMTHPRP,-0.633
10,RRIRQRPPRLPRPRPRPDSMPRP,-0.17
11,RRIRMRPPRLPRPRPRPLCWPRP,1.15
12,RRIRGRPPRLPRPRPRPHQCPRP,-0.0129
13,RRIRRRPPRLPRPRPRPMWEPRP,0.00178
14,RRIRGRPPRLPRPRPRPGCDPRP,1.26
15,RRIRERPPRLPRPRPRPYYEPRP,-0.224
16,RRIRCRPPRLPRPRPRPKRYPRP,-0.0053
17,RRIRERPPRLPRPRPRPKKQPRP,-0.0932
18,RRIRFRPPRLPRPRPRPNWGPRP,0.0529
19,RRIRYRPPRLPRPRPRPSKMPRP,-0.365
20,RRIRSRPPRLPRPRPRPALDPRP,0.137
21,RRIRDRPPRLPRPRPRPMRYPRP,0.104
22,RRIRFRPPRLPRPRPRPLSHPRP,-0.512
23,RRIRPRPPRLPRPRPRPSTTPRP,-0.326
24,RRIRHRPPRLPRPRPRPHVAPRP,-0.208
25,RRIRNRPPRLPRPRPRPFLIPRP,0.117

row,Sequence,shrunken log2 fold change
1,RRIRARPPRLPRPRPRPGHEPRP,0.054
2,RRIRDRPPRLPRPRPRPWHKPRP,-0.11
3,RRIRSRPPRLPRPRPRPFIPPRP,-0.629
4,RRIRWRPPRLPRPRPRPRFTPRP,0.307
5,RRIRVRPPRLPRPRPRPEGEPRP,0.171
6,RRIRDRPPRLPRPRPRPDIDPRP,-0.012
7,RRIRFRPPRLPRPRPRPWAYPRP,-0.201
8,RRIRNRPPRLPRPRPRPEHPPRP,0.115
9,RRIRCRPPRLPRPRPRPRKTPRP,0.103
10,RRIRPRPPRLPRPRPRPYEMPRP,-0.281
11,RRIRYRPPRLPRPRPRPMYEPRP,-0.101
12,RRIRIRPPRLPRPRPRPNTNPRP,-0.905
13,RRIRTRPPRLPRPRPRPDILPRP,0.109
14,RRIRPRPPRLPRPRPRPNYFPRP,-0.435
15,RRIRARPPRLPRPRPRPDQTPRP,-0.0212
16,RRIRQRPPRLPRPRPRPEVGPRP,-0.0239
17,RRIRIRPPRLPRPRPRPGEVPRP,0.0961
18,RRIRLRPPRLPRPRPRPGVDPRP,0.411
19,RRIRGRPPRLPRPRPRPLGKPRP,0.362
20,RRIRTRPPRLPRPRPRPQGPPRP,0.0175
21,RRIRARPPRLPRPRPRPGWCPRP,0.465
22,RRIRTRPPRLPRPRPRPTCVPRP,-0.308
23,RRIRSRPPRLPRPRPRPYSQPRP,-0.0604
24,RRIRCRPPRLPRPRPRPVADPRP,0.181
25,RRIRYRPPRLPRPRPRPEYTPRP,-0.542

row,Sequence,shrunken log2 fold change
1,RRIRGRPPRLPRPRPRPQCNPRP,0.203
2,RRIRFRPPRLPRPRPRPCYIPRP,-0.158
3,RRIRPRPPRLPRPRPRPYKLPRP,-0.313
4,RRIRNRPPRLPRPRPRPNWGPRP,-0.0231
5,RRIRVRPPRLPRPRPRPQFEPRP,-0.119
6,RRIRCRPPRLPRPRPRPEEKPRP,0.0239
7,RRIRDRPPRLPRPRPRPFMIPRP,0.0898
8,RRIRDRPPRLPRPRPRPGKEPRP,-0.0214
9,RRIRMRPPRLPRPRPRPQSKPRP,0.0671
10,RRIRQRPPRLPRPRPRPGHAPRP,0.116
11,RRIRVRPPRLPRPRPRPGDLPRP,-0.211
12,RRIRKRPPRLPRPRPRPCAGPRP,0.257
13,RRIRKRPPRLPRPRPRPGTEPRP,0.542
14,RRIRKRPPRLPRPRPRPKMEPRP,0.368
15,RRIRRRPPRLPRPRPRPAPCPRP,0.884
16,RRIRYRPPRLPRPRPRPHICPRP,-0.0358
17,RRIRPRPPRLPRPRPRPCYMPRP,-1.12
18,RRIRWRPPRLPRPRPRPQWHPRP,0.0415
19,RRIRYRPPRLPRPRPRPVTGPRP,-0.213
20,RRIRTRPPRLPRPRPRPWYVPRP,-0.275
21,RRIRQRPPRLPRPRPRPCRQPRP,0.0342
22,RRIRRRPPRLPRPRPRPFAMPRP,0.0854
23,RRIRARPPRLPRPRPRPDILPRP,0.0584
24,RRIRHRPPRLPRPRPRPHHLPRP,-0.0119
25,RRIRSRPPRLPRPRPRPCFYPRP,-0.39

row,Sequence,shrunken log2 fold change
1,RRIRLRPPRLPRPRPRPITWPRP,-0.543
2,RRIRHRPPRLPRPRPRPKVMPRP,0.0163
3,RRIRNRPPRLPRPRPRPIWCPRP,-0.0833
4,RRIRYRPPRLPRPRPRPEMEPRP,-0.0352
5,RRIRLRPPRLPRPRPRPWLKPRP,0.0827
6,RRIRHRPPRLPRPRPRPRTPPRP,0.314
7,RRIRTRPPRLPRPRPRPNLEPRP,-0.0562
8,RRIRHRPPRLPRPRPRPNQFPRP,-0.789
9,RRIRHRPPRLPRPRPRPGAKPRP,0.219
10,RRIRMRPPRLPRPRPRPFENPRP,0.00631
11,RRIRQRPPRLPRPRPRPSGAPRP,0.054
12,RRIRNRPPRLPRPRPRPKVEPRP,0.039
13,RRIRRRPPRLPRPRPRPNEPPRP,0.317
14,RRIRIRPPRLPRPRPRPGLYPRP,-0.0503
15,RRIRTRPPRLPRPRPRPEVDPRP,0.036
16,RRIRRRPPRLPRPRPRPCYYPRP,0.0129
17,RRIRKRPPRLPRPRPRPFYDPRP,0.0223
18,RRIRARPPRLPRPRPRPIRGPRP,0.0372
19,RRIRWRPPRLPRPRPRPQVDPRP,1.5
20,RRIRDRPPRLPRPRPRPPRLPRP,0.144
21,RRIRMRPPRLPRPRPRPTMTPRP,2.3
22,RRIRYRPPRLPRPRPRPVLRPRP,0.124
23,RRIRSRPPRLPRPRPRPYLKPRP,-0.0359
24,RRIRWRPPRLPRPRPRPKWGPRP,0.463
25,RRIRLRPPRLPRPRPRPRRNPRP,0.0956

row,Sequence,shrunken log2 fold change
1,RRIRFRPPRLPRPRPRPNTHPRP,-0.579
2,RRIRMRPPRLPRPRPRPSRYPRP,-0.173
3,RRIRYRPPRLPRPRPRPKDTPRP,-0.392
4,RRIRWRPPRLPRPRPRPVNDPRP,0.118
5,RRIRERPPRLPRPRPRPIRIPRP,-0.00822
6,RRIRYRPPRLPRPRPRPDWNPRP,-0.428
7,RRIRDRPPRLPRPRPRPCNQPRP,-0.285
8,RRIRNRPPRLPRPRPRPCFFPRP,-0.489
9,RRIRCRPPRLPRPRPRPMPRPRP,0.0702
10,RRIRFRPPRLPRPRPRPFEAPRP,-0.105
11,RRIRQRPPRLPRPRPRPTRRPRP,0.556
12,RRIRNRPPRLPRPRPRPTFRPRP,-0.22
13,RRIRMRPPRLPRPRPRPPAYPRP,0.608
14,RRIRIRPPRLPRPRPRPDQGPRP,0.0651
15,RRIRIRPPRLPRPRPRPPPMPRP,0.377
16,RRIRRRPPRLPRPRPRPMCWPRP,0.0358
17,RRIRRRPPRLPRPRPRPASQPRP,0.0789
18,RRIRNRPPRLPRPRPRPRDSPRP,0.0829
19,RRIRERPPRLPRPRPRPQCYPRP,-0.186
20,RRIRDRPPRLPRPRPRPTQHPRP,0.396
21,RRIRQRPPRLPRPRPRPQVWPRP,-0.0346
22,RRIRHRPPRLPRPRPRPMNHPRP,-0.738
23,RRIRIRPPRLPRPRPRPTDNPRP,-0.964
24,RRIRIRPPRLPRPRPRPDFWPRP,0.0448
25,RRIRIRPPRLPRPRPRPALCPRP,0.0482
